According to patent US20190367619A1 (ARGENX, published 2019):
Read-outs that look alike come from different tables or passages of the source.

T1: cynomolgus galectin-10-His, YRT isoform (cynomolgus)
T1 sequence: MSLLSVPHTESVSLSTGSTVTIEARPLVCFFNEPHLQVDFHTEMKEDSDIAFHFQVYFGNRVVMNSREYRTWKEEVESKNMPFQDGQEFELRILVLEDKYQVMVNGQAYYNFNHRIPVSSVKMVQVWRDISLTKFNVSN

T2: human galectin-10-His (recombinant human galectin-10 with TEV-cleavable N-terminal His-tag) (human)
T2 construct: SEC-MALLS: dimer in solution; also called Gal10-His; humanGal10-His
T2 chain: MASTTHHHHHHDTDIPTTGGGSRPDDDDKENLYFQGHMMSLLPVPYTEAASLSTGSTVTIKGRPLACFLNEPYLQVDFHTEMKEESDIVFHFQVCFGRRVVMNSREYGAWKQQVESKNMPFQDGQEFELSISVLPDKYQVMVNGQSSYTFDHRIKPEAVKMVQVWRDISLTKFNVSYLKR

T3: TEV-cleaved wild-type recombinant human galectin-10 (soluble, in Fab complexes, or as recombinant galectin-10 … (human, UniProt Q05315 1-142))
T3 sequence: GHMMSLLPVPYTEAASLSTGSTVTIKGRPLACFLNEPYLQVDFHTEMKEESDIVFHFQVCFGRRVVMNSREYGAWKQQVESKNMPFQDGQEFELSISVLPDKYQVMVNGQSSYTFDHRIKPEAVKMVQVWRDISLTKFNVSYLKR


Assays:
[1] = target: TEV-cleaved wild-type recombinant human galectin-10 (soluble, in Fab complexes, or as recombinant galectin-10 crystals / CLCs) (human) (UniProt Q05315); assay: cell-based or functional assay
[2] = target: T1, cynomolgus galectin-10-His, YRT isoform (cynomolgus); assay: ELISA, coated antigen 0.5 ug/mL
[3] = target: T2, human galectin-10-His (recombinant …); assay: SPR Biacore T3000, mouse IgG1 captured by anti-mouse Fc, galectin-10-His as analyte
Description: (§1) The binding capacity of the mouse IgG1 antibodies to galectin-10 was analyzed on Biacore T3000. For this purpose, a capture approach was set up. A CM5 Chip was coated with polyclonal anti-mouse Fc at 8000 RU, then a fixed concentration of the mouse IgG1 antibody panel (1.5 μg/mL), diluted in HBS-EP pH7.4, was captured to reach a binding signal around 150 RU. Finally, a serial dilution of galectin-10-His (serial dilution, 1 over 2 from 5 μg/mL) diluted in HBS-EP pH7.4 was injected. Raw data were analyzed via BIA evaluation software with a blank subtraction (4-3). The kd/KD and Rmax of each mAb to galectin-10-His was determined using the Fit Kinetics simultaneous ka/kd/Binding with mass transfer/Local Rmax on BIA evaluation software.

[4] = target: T2, human galectin-10-His (recombinant …); assay: BLI tandem on galectin-10-His; competitor: saturating 4E08 mIgG1 (10 ug/mL)
Description: (§2) In order to identify the galectin-10 binding sites of the different clones, an epitope mapping method (TANDEM), using the BLI technology, was established. Briefly, the galectin-10-His was captured on anti-HIS 1K sensor tips, before incubation with an excess of one antibody (called the “saturating” antibody) then directly transferred to a solution containing the “competitor” antibody at a suboptimal concentration. If the “saturating” and the competitor antibody bind to the same binding sites, no binding of “competitor” will be detected (expressed in nm shift).

[5] = target: T2, human galectin-10-His (recombinant …); assay: BLI tandem on galectin-10-His; competitor: saturating 2F09 mIgG1 (10 ug/mL)
Description: as §2

[6] = target: T2, human galectin-10-His (recombinant …); assay: ELISA, mouse IgG1 on coated galectin-10-His (0.2 ug/mL)
Description: In a similar setup to that used during the characterization of the scFv-human Fc molecules, the relative binding affinities of the 10 mouse IgG1 antibodies were analyzed by ELISA. A Maxisorp plate was coated overnight with 0.2 μg/mL of galectin-10-His. Then a serial dilution of each clone (from 100 nM, dilution 1/4, 12 points of dilutions) was incubated on coated galectin-10. After several washing steps, detection of the bound mouse IgG1 was carried out with an anti-mouse Fc-HRP antibody. Absorbance was measured at 450 nm (reference at 620 nm) with Tecan instrument. A mouse IgG1 isotype control was used as negative control. A polyclonal anti-galectin-10 antibody was used as positive control for the coating of galectin-10. The raw data (OD values) were plotted on GraphPad Prism 7.01. The EC50 values for each antibody, calculated with a non-linear regression (log(agonist) vs. response Variable slope (four parameters)), are reported in Table 7 below.

[7] = target: T2, human galectin-10-His (recombinant …); assay: BLI tandem on galectin-10-His; competitor: saturating 1D11 mIgG1 (10 ug/mL)
Description: as §2

[8] = target: T2, human galectin-10-His (recombinant …); assay: BLI tandem on galectin-10-His; competitor: saturating 6A05 mIgG1 (10 ug/mL)
Description: as §2

[9] = target: T2, human galectin-10-His (recombinant …); assay: BLI tandem on galectin-10-His; competitor: saturating 1C09 mIgG1 (10 ug/mL)
Description: as §2

[10] = target: T3, TEV-cleaved wild-type recombinant human …; assay: cell-based or functional assay
[11] = target: T2, human galectin-10-His (recombinant …); assay: BLI tandem on galectin-10-His; competitor: saturating 6F06 mIgG1 (10 ug/mL)
Description: as §2

[12] = target: T3, TEV-cleaved wild-type recombinant human …; assay: cell-based or functional assay; remark: listed apart in the source
[13] = target: T2, human galectin-10-His (recombinant …); assay: BLI tandem on galectin-10-His; competitor: saturating 6E10 mIgG1 (10 ug/mL)
Description: as §2

[14] = target: T2, human galectin-10-His (recombinant …); assay: Biacore capture approach (summary table), mouse IgG1
Description: as §1

[15] = target: T2, human galectin-10-His (recombinant …); assay: BLI tandem on galectin-10-His; competitor: saturating 2C07 mIgG1 (10 ug/mL)
Description: as §2

[16] = target: T2, human galectin-10-His (recombinant …); assay: BLI tandem on galectin-10-His; isotype control as saturating antibody (10 ug/mL)
Description: as §2

[17] = target: T2, human galectin-10-His (recombinant …); assay: ELISA binding (summary table), mouse IgG1
[18] = target: T3, TEV-cleaved wild-type recombinant human …; assay: cell-based or functional assay; remark: listed apart in the source
[19] = target: T2, human galectin-10-His (recombinant …); assay: BLI tandem on galectin-10-His; competitor: saturating 6B06 mIgG1 (10 ug/mL)
Description: as §2

[20] = target: T2, human galectin-10-His (recombinant …); assay: BLI tandem on galectin-10-His; competitor: saturating 6A08 mIgG1 (10 ug/mL)
Description: as §2

Row | Molecule | Kd [3] [nM] | koff [3] [s⁻¹] | binding signal (nm) [4] [nm] | binding signal (nm) [5] [nm] | Bmax [6] [OD] | EC50 [6] [nM] | binding signal (nm) [7] [nm] | binding signal (nm) [8] [nm] | binding signal (nm) [9] [nm] | 100% Inhibition of CLC formation (Conc uM) [10] [µM] | 100% Solubilization of CLC (Conc uM) [10] [µM] | binding signal (nm) [11] [nm] | dissolution of in vitro grown Gal10 crystals (spinning disk confocal microscopy) [12] [min] | binding signal (nm) [13] [nm] | Kd [14] [nM] | koff [14] [s⁻¹] | binding signal (nm) [15] [nm] | binding signal (nm) [16] [nm] | EC50 [17] [nM] | 100% Solubilization of CLC (Conc uM) [18] [µM] | other results
1 | mouse IgG1 isotype control (irrelevant mouse IgG1) (antibody) | – | – | – | – | – | – | – | – | – | – | – | – | – | – | – | – | – | – | – | – | CLC formation (crystallization robot assay) [1]: 100%
2 | 1D11 mouse IgG1 (antibody, V domains shown) VH: QVQLVESGGGLVQPGGSLRLSCAASGFTFDDYAMSWVRQAPGKGLEWVSGISWNGGSTYYAESMKGRFTISRDNAKNTLYLQMNSLKSEDTAVYYCAKDRNLGYRLGYPYDYWGQGTQVTVSS VL: QSVLTQPPSVSGSPGETVTISCAGTSSDVGYGNYVSWYQQLPGMAPRLLIYEVNKRASGITDRFSGSKSGNTASLTISGLQSEDEGDYYCASYRSSNNAVFGGGTHLTVL | – | – | – | – | – | – | – | – | – | – | – | – | – | – | – | – | – | – | – | – | OD values [2]: 0.03 OD
3 | 4E08 mouse IgG1 (antibody, V domains shown, VH on mouse IgG1 heavy chain constant domains (CH1-CH2-CH3), VL on mouse lambda light chain constant domain; also called 4E8; 4E08 mIgG1) VH: QVQRQESGPGLVKPSQTLSLTCTVSGGSITTSYYAWSWIRQPPGKGLEWMGVIASDGSTYYSPSLKSRTSISRDTSKNQFSLQLSSVTPEDTAVYYCALYIRGSSWSGWSAYDYWGQGTQVTVSS VL: QPVLNQPSAVSVSLGQTARITCQGGNFGYYYGSWYQQKPGQAPVLVIYKDSERPSGIPERFSGSSSGGTATLTISRAQAEDEADYYCQSADSSDNPVFGGGTHLTVL | 0.8 | 0.00085 | -0.08 | 0.01 | 2.06 | 3.22 | 0.03 | 0.03 | -0.02 | 1.11 | > 10 | 0.01 | ≤ 90 | -0.05 | 0.8 | 0.00085 | 0 | 0.97 | 3.22 | > 10 | binding signal (nm) [19]: 0 nm; binding signal (nm) [20]: -0.03 nm
4 | 1C09 mouse IgG1 (antibody, V domains shown, VH on mouse IgG1 heavy chain constant domains (CH1-CH2-CH3), VL on mouse lambda light chain constant domain; also called 1C09 mIgG1) VH: QVQLVESGPGLVKPSQTLSLTCTVSGGSITTNSYYWSWIRQPPGKGLEWMGAIAYSGSTYYSPSLKSRTSISRDTSKNQFTLHLSSVTPEDTAVYYCARRPNWYRALDAWGQGTLVTVSS VL: NFMLTQPSAVSVSLGQTARITCQGANLGRYYGIWYQQKPGQAPVQVIYGDSNRPSGIPERFSGSSSGGTATLTISGAQAEDEADYYCQSYESSTSPVFGGGTHLTVL | 0.5 | 0.00529 | 0.08 | 0.02 | 2.3 | 0.13 | 0.1 | 0.09 | 0.03 | 0.82 | 10.5 | 0.04 | ≤ 90 | 0.02 | 0.5 | 0.00529 | 0.03 | 1.21 | 0.13 | 10.5 | binding signal (nm) [19]: 0.02 nm; binding signal (nm) [20]: 0.04 nm
